Tests used:
Hck = Hck (UniProt P08631); test: phosphorylation enrichment, bacterial display (enrichment ratio); higher = better substrate or ligand; peptides without Tyr show the background
c-Src = test: as above
Jak2 = Jak2 (UniProt O60674); test: as above
EPHB1 = EPHB1 (UniProt P54762); test: as above
Fes = Fes (UniProt P07332); test: as above
Fyn = Fyn (UniProt P06241); test: as above
AncSZ = test: as above
FGFR3 = FGFR3 (UniProt P22607); test: as above
EPHB2 = EPHB2 (UniProt P29323); test: as above
Sequence of EPHB2 (P29323 whole entry, looked up): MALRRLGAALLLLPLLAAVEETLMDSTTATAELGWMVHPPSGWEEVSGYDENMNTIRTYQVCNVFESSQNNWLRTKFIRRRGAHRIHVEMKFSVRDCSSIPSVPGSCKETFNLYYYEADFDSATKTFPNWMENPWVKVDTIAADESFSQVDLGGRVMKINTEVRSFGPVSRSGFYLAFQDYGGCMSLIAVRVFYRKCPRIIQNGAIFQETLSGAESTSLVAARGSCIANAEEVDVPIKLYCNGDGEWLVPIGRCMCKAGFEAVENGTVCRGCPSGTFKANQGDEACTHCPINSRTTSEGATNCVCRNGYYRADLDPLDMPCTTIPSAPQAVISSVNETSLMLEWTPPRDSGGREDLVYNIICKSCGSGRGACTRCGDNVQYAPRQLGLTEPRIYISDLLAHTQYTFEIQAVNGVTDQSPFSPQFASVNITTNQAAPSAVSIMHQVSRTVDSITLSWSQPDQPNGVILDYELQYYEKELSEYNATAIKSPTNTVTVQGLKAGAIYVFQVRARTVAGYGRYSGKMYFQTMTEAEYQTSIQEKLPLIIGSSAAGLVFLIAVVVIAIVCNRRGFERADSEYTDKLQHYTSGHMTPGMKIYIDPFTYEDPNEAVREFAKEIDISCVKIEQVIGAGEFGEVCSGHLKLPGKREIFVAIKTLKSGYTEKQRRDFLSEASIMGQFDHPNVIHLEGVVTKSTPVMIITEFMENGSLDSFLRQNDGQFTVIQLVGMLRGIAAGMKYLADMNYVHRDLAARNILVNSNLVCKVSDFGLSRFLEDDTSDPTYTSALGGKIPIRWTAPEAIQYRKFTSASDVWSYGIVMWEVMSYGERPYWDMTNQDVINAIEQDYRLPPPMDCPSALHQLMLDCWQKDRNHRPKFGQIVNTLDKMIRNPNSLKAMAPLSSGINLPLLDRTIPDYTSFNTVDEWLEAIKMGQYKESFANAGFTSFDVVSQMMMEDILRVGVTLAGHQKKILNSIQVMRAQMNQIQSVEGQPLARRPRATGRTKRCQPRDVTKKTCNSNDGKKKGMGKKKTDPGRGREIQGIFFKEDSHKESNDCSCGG

FGFR1 = FGFR1 (UniProt P11362); test: as above
Fer (mouse) = test: as above
MERTK = MERTK (UniProt Q12866); test: as above
c-Abl (mouse) = test: as above
Grb2 SH2 = Grb2 SH2 (UniProt P62993); test: SH2 binding enrichment of the phosphorylated peptide, bacterial display (enrichment ratio); higher = better substrate or ligand; peptides without Tyr show the background
SHP2-C SH2 = test: as above
c-Src SH2 = test: as above
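Wherever SH2 binding enrichment of the phosphorylated peptide, bacterial display is given: peptide library displayed on the E. coli surface as eCPX fusions, selected cells deep-sequenced, score is each peptide's frequency after selection divided by its frequency in the input.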
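Wherever phosphorylation enrichment, bacterial display is given: 11-residue human phosphosite peptides and single-mutation variants displayed on the E. coli surface, counted by deep sequencing, each peptide's frequency after selection divided by its frequency in the unselected input library; frequency after pTyr selection over input frequency; kinase dosed for 20-30% of maximal phosphorylation in three min.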

Sequence of Fyn (P06241 whole entry, looked up): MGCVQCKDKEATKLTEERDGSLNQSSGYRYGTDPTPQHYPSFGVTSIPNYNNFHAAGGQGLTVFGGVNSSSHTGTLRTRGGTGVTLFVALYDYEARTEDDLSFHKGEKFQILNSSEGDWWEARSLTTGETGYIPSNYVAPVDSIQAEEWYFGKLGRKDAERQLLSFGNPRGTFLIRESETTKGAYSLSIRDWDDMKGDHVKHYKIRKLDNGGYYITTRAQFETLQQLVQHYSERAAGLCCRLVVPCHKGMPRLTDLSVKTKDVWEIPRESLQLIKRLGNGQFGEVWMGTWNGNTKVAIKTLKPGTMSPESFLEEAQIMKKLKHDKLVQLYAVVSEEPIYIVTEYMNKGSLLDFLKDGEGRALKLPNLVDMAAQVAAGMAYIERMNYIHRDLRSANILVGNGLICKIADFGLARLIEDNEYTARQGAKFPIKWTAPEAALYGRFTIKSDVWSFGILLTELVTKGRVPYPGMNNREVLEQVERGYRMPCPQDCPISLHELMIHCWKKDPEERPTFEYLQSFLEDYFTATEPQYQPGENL
Sequence of Fes (P07332 whole entry, looked up): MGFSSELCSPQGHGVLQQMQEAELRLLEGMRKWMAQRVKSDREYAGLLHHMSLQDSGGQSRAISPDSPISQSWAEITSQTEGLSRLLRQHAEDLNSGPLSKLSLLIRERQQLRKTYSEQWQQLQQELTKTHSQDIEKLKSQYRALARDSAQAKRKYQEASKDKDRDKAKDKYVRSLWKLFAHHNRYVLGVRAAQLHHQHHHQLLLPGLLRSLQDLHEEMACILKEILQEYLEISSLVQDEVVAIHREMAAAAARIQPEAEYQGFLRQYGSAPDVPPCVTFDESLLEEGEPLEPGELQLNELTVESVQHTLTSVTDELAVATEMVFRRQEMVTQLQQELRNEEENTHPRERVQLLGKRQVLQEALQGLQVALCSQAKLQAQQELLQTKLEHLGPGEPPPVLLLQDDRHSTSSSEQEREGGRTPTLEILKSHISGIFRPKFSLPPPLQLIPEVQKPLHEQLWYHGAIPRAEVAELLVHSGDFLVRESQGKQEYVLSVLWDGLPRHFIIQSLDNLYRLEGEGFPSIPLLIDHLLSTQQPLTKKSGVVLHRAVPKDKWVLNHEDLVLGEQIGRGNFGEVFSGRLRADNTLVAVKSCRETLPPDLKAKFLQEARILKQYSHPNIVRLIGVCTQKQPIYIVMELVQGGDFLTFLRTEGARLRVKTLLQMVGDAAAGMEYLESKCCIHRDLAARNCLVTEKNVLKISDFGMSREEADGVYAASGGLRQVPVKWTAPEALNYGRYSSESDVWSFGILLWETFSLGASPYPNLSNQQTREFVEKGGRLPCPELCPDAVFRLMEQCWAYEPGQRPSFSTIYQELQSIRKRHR
Sequence of Jak2 (O60674 whole entry, looked up): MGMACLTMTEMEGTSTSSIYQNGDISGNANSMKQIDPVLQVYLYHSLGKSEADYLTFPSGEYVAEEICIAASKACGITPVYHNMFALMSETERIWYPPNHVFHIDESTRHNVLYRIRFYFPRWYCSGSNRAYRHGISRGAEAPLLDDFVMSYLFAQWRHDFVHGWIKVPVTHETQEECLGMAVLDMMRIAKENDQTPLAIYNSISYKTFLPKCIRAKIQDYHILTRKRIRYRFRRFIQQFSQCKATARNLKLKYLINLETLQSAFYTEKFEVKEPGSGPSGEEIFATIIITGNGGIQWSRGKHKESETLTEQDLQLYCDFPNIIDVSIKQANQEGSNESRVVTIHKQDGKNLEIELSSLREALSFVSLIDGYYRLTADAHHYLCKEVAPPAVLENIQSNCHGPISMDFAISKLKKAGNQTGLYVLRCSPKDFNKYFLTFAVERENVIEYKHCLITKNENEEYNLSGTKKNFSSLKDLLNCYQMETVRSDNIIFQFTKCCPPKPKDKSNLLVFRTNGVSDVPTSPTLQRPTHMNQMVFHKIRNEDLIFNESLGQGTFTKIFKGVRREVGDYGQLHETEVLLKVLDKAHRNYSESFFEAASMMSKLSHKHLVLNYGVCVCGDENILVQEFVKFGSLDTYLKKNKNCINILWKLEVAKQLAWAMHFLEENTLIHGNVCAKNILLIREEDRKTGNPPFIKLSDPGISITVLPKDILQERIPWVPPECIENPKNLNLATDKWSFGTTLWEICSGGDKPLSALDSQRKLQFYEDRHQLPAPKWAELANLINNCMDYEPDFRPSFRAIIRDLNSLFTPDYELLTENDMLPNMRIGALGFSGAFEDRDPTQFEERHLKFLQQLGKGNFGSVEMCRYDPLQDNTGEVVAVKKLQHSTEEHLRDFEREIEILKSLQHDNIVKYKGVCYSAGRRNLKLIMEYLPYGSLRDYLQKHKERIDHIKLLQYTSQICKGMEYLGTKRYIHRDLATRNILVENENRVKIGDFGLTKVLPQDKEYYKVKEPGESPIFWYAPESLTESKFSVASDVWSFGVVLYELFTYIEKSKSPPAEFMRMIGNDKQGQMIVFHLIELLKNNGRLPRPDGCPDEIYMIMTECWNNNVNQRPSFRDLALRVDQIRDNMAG
Sequence of Hck (P08631 whole entry, looked up): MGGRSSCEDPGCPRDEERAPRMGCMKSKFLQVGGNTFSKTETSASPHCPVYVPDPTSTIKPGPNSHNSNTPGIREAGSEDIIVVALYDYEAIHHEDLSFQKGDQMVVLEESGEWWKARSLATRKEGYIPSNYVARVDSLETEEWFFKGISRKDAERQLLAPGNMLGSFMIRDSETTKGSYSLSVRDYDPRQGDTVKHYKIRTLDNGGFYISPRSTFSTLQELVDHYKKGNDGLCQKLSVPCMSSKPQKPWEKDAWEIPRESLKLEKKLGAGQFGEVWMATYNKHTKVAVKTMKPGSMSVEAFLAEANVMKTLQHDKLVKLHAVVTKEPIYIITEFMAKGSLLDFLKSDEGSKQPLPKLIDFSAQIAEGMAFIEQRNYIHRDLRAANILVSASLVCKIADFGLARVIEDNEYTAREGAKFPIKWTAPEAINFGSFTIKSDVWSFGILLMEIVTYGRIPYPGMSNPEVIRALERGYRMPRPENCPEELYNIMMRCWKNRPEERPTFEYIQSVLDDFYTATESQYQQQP
Sequence of FGFR3 (P22607 whole entry, looked up): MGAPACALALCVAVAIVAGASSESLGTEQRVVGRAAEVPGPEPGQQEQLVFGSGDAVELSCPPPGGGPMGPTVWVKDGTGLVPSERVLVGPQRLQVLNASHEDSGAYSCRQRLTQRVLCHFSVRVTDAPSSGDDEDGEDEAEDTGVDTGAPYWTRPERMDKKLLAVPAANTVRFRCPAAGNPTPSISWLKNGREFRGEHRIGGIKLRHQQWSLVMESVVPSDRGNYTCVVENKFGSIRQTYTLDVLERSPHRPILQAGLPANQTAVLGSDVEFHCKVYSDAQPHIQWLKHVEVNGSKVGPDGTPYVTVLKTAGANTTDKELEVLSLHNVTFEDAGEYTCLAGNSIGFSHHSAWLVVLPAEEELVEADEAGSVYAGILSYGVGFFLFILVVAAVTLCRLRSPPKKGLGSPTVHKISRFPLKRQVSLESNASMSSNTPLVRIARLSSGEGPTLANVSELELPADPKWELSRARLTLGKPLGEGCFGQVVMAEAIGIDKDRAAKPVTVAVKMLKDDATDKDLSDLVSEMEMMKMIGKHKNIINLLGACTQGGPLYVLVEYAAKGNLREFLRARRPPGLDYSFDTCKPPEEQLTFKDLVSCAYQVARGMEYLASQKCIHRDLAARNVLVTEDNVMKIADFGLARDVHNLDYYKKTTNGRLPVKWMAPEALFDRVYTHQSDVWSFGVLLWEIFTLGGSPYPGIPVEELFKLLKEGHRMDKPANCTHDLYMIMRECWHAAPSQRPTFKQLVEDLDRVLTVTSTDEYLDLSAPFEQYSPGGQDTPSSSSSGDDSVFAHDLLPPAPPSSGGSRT

| Sequence | phosphorylation enrichment (Hck) | phosphorylation enrichment (c-Src) | phosphorylation enrichment (Jak2) | phosphorylation enrichment (EPHB1) | phosphorylation enrichment (Fes) | phosphorylation enrichment (Fyn) | phosphorylation enrichment (AncSZ) | phosphorylation enrichment (FGFR3) | phosphorylation enrichment (EPHB2) | phosphorylation enrichment (FGFR1) | phosphorylation enrichment (Fer (mouse)) | phosphorylation enrichment (MERTK) | phosphorylation enrichment (c-Abl (mouse)) | SH2 binding enrichment (Grb2 SH2) | SH2 binding enrichment (SHP2-C SH2) | SH2 binding enrichment (c-Src SH2) |
| --- | --- | --- | --- | --- | --- | --- | --- | --- | --- | --- | --- | --- | --- | --- | --- | --- |
| QEGPEYWDRET [HLA-A_Y83_Q86R] | 0.871 | 0.814 | 2.21 | 1.16 | 2.45 | 0.692 | 2.03 | 1.08 | 0.946 | 0.85 | 0.92 | 0.924 | 1.44 | 0.787 | 0.539 | 0.533 |
| AGIVDYNIIGW [MYH7_Y588] | 0.497 | 0.454 | 0.877 | 0.636 | 1.18 | 0.497 | 1.07 | 0.909 | 0.431 | 0.873 | 0.439 | 0.349 | 0.619 | 0.562 | 0.589 | 0.566 |
| QGRQTYLPQPA [DDR2_Y813] | 0.713 | 0.477 | 0.778 | 0.527 | 0.821 | 0.495 | 0.752 | 0.485 | 0.473 | 0.552 | 0.408 | 0.433 | 0.844 | 0.627 | 0.44 | 0.553 |
| SADIAYNFRHG [PAH_Y166_F161S_YF] | 0.423 | 0.457 | 0.574 | 0.447 | 0.673 | 0.416 | 0.587 | 0.469 | 0.33 | 0.433 | 0.348 | 0.374 | 0.789 | 0.869 | 0.798 | 0.535 |
| GYGGGYGGVLT [KRT19_Y65_A60G] | 0.665 | 0.453 | 0.575 | 0.359 | 0.641 | 0.42 | 0.556 | 0.511 | 0.47 | 0.468 | 0.419 | 0.391 | 0.468 | 0.742 | 0.791 | 0.448 |
| FFWDGYMPRQF [GSS_Y270_R267W_YF] | 0.471 | 0.43 | 3.7 | 0.601 | 1.19 | 0.349 | 1.12 | 0.735 | 0.551 | 0.481 | 0.504 | 0.398 | 0.734 | 1.05 | 0.782 | 0.81 |
| KSEFAYEIFDK [MYOM2_Y1024_L1022F] | 0.561 | 2.1 | 1.01 | 0.527 | 1.04 | 0.797 | 1.34 | 0.664 | 0.573 | 0.564 | 0.543 | 0.967 | 0.746 | 0.613 | 0.63 | 1.08 |
| FADIAYNFHHG [PAH_Y166_R169H_YF] | 0.528 | 0.501 | 0.43 | 0.427 | 0.725 | 0.704 | 0.686 | 0.478 | 0.524 | 0.515 | 0.483 | 0.406 | 0.354 | 0.62 | 0.564 | 0.566 |
| QDTSRYTVCNL [BIRC3_Y245_S248C] | 0.359 | 0.439 | 0.741 | 0.528 | 0.815 | 0.546 | 0.745 | 0.469 | 0.439 | 0.418 | 0.557 | 0.348 | 0.854 | 0.79 | 0.78 | 1.29 |
| SLEKGYELPDG [ACTC1_Y242_S241G] | 0.488 | 0.368 | 0.756 | 0.475 | 0.909 | 0.49 | 0.994 | 0.545 | 0.499 | 0.438 | 0.436 | 0.35 | 0.6 | 0.832 | 0.847 | 5.21 |
| SDQPDYDSVAS [GIT2_Y392_N387S] | 0.594 | 0.525 | 1.09 | 0.655 | 1.27 | 0.565 | 1.29 | 0.693 | 0.726 | 0.625 | 0.739 | 0.499 | 0.729 | 0.783 | 0.735 | 0.526 |
| SGADSYEMEED [EGFR_Y316_C311S] | 0.668 | 0.561 | 1.12 | 0.574 | 1.16 | 0.625 | 1.29 | 0.871 | 0.585 | 0.822 | 0.52 | 0.722 | 0.749 | 0.979 | 0.701 | 0.728 |
| ALAHKYPGGGG [HBB_Y146_H147P] | 0.273 | 0.281 | 0.262 | 0.894 | 0.632 | 0.559 | 0.214 | 0.662 | 0.84 | 0.853 | 0.432 | 0.334 | 0.436 | 0.516 | 0.581 | 0.384 |
| TLNHQYDYTFD [CSNK1A1_Y292] | 0.536 | 1.27 | 0.783 | 0.512 | 0.964 | 0.519 | 1.05 | 0.824 | 0.706 | 0.85 | 0.432 | 0.453 | 0.565 | 0.779 | 0.691 | 9.88 |

Reference: the supplement of paper PMC10065799, “High-throughput profiling of sequence recognition by tyrosine kinases and SH2 domains using bacterial peptide display” (eLife, 2023)
